Results reported in patent publication US20230312753A1 (IMMUNORIZON, published 2023).

What was measured:
[1] = target: T1, NKG2A on NK92 cells (endogenous) (UniProt P26715 1-233, limits assumed); experiment: FACS on NK92 cells (FIG. 45C)
T1 construct: whole, on cells
Procedure: (§1) Suspension cultured cells was harvested directly, and adherent cell were digested using TrypLE Express Enzyme (cat: 12604-013, supplier Life technologies). Centrifuge at 1000 rpm for 5 min and discard the supernatant. Cells are suspended at a concentration of 2×10⁶/mL in FACS buffer (2% FBS in PBS) and add 100 µL/well of cell suspension to the plate (cat #3799, supplier Corning). Centrifuging the plates at 2000 rpm for 5 min and discard the supernatant. Re-suspend the cells in 100 µL/well of Tribody set antibodies (400 nM start, 4-fold dilution, 8 point including 0 point) and incubate the plate for 60 min at 4° C. Centrifuge the plate at 2000 rpm, 4° C. for 5 min and discard supernatant. Then wash the cells 3 times with 170 µL FACS buffer. Re-suspend the cells at 100 µL/well with secondary antibody (goat anti-human Ig Fab-FITC, Cat # 2085-02, Southern biotech) with 1:400 dilution and incubate the plate for 30 min at 4° C. in dark. Centrifuge the plate at 2000 rpm, 4° C. for 5 min and discard supernatant. […] The fluorescence intensity of the staining was measured using flow cytometer (BD, FACSVerse). The geometric mean fluorescence intensity (GMFI; median fluorescence intensity (MFI)) of set antibodies staining was calculated (BD FACSuite software). Dose-response curves were generated and EC50s for thetrispecific variants binding were calculated using GraphPad Prism software.

[2] = target: T2, h5T4-His (recombinant human 5T4) (human, UniProt Q13641 32-355, limits assumed); experiment: ELISA on coated h5T4-His (FIG. 43B)
T2 construct: Bought protein; also called recombinant 5T4
T2 sequence (looked up): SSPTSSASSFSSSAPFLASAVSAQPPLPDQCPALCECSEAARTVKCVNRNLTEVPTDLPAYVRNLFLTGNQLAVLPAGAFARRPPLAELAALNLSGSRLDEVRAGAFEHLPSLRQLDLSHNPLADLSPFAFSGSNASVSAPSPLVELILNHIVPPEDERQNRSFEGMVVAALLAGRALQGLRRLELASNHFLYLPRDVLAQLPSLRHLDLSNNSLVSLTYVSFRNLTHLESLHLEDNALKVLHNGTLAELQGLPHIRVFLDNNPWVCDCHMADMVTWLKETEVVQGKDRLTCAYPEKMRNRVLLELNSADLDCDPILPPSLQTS
Procedure: (§2) Methods: ELISA binding of Tribody/ProTribody antibody constructs to antigens: Dilute target protein (hCD3epsilon-His (cat # 10977-H08S, supplier Sino Biological); h5T4-His (cat# 19845-H08H, supplier Sino Biological); NKG2A-CD94-ECD-hFc, Lot:20200724002, provided by CP; or NKG2D-ECD-hFc, Lot: 20200413002, provided by CP) into PBS with final concentration of 0.01 µg/mL for hCD3epsilon-His, 0.3 µg/mL for h5T4-His, 1 µg/mL for NKG2A-CD94-ECD-hFc and 0.7 µg/mL for hNKG2D-ECD-hFc respectively and coat 100 µL/well on ELISA plate (cat: 9018, supplier Corning) respectively. Incubate O/N, 4° C. The plates were blocked with 250 µL 1% BSA in PBST for 1 hr at 37° C.Wash 4 times with PBST. All the washes are done using Biotek (Elx 405). All the Tribody set antibodies were diluted to 400 nM and make 4-fold serially dilutions (12 points, including 0 point). Add 100 µL/well diluted antibody constructs solution to plate, incubate for 1 hr at 37° C.Wash 4 times with PBST. Add 100 µL/well anti-human kappa light chain-HRP (1:10000), incubate for 0.5 hr at 37° C. Wash 4 times with PBST. 100 µL/well of TMB substrate was added and incubated at room temperature for 5 min. 100 µL/well of 1N HCl to terminate reaction. Plates were read using ELISA plate reader at 450 nm wavelength (instrunet SpectraMax M5e). Data Analysis was performed using Graphpad prism 5 software by using nonlinear regression (curve fit): log (agonist) vs. response, agonist is antibody concentration (nM) and response is OD value.

[3] = target: T3, hCD3epsilon-His (recombinant human CD3 epsilon) (human, UniProt P07766 23-126); experiment: ELISA on coated hCD3epsilon-His (FIG. 43A)
T3 construct: Bought protein; also called recombinant hCD3ε protein; human CD3ε
T3 sequence (P07766 23-126 limits assumed): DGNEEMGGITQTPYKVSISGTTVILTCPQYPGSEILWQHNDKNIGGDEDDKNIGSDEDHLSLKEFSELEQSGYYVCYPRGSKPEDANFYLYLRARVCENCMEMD
Procedure: as §2, with “Data Analysis was performed using Graphpad prism 5 software by using nonlinear regression (curve fit): log (agonist) vs. response, agonist is antibody concentration (nM) and response is OD value.” left out

NKG2A-CD94-ECD-hFc = target: T4, NKG2A-CD94-ECD-hFc (human, UniProt P26715 94-233; Q13241 32-179, limits assumed); experiment: ELISA on coated NKG2A-CD94-ECD-hFc (FIG. 43C)
T4 construct: extracellular domain; Lot 20200724002, 'provided by CP'; the two-chain layout here is only the reading of the name; also called human NKG2A (recombinant); NKG2A antigen; not shown: human Fc (hFc)
T4 sequence (P26715 94-233 limits assumed, chain 1 of 2): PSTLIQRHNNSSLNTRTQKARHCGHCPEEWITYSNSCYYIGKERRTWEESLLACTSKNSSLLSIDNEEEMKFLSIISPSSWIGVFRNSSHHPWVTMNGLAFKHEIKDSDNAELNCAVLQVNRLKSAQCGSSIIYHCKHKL
T4 sequence (Q13241 32-179 limits assumed, chain 2 of 2): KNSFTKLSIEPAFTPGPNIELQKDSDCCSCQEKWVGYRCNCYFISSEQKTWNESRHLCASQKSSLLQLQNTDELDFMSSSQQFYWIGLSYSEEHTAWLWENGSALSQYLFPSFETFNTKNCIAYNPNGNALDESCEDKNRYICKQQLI
Procedure: as §2

[4] = target: T5, human CD3 epsilon on cells (Jurkat T cells, endogenous) (human, UniProt P07766 23-207); experiment: FACS on Jurkat T cells, endogenous hCD3ε (FIG. 45A)
T5 construct: whole, on cells; On cells CD3 epsilon stands in the TCR/CD3 complex; only the epsilon chain is named as target; also called hCD3ε on Jurkat; CD3ε expressing cells
T5 sequence (P07766 23-207): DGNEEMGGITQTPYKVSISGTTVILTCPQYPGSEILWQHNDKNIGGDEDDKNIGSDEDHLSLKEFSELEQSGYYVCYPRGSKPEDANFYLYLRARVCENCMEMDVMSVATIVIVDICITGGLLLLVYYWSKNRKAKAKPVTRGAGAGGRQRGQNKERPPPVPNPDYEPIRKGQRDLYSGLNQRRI
Procedure: as §1, with “buffer.” for “buffer. Re-suspend the cells at 100 µL/well with secondary antibody (goat anti-human Ig Fab-FITC, Cat # 2085-02, Southern biotech) with 1:400 dilution and incubate the plate for 30 min at 4° C. in dark. Centrifuge the plate at 2000 rpm, 4° C. for 5 min and discard supernatant.”
Results: The expressed trispecific constructs were analyzed for their binding to cells expressing endogenous CD3ε, 5T4 and NKG2A/NKG2D.

[5] = target: T6, NKG2A/CD94 on CHO cells (CHOK1-NKG2A-CD94) (human, UniProt P26715 1-233; Q13241 1-179, limits assumed); experiment: FACS on CHO cells over-expressing NKG2A/CD94 (FIG. 45E)
T6 construct: whole, on cells; also called CHO cells over-expressing NKG2A/CD94; CHO cell line over expressing ectopic NKG2A
T6 sequence (P26715 whole entry, chain 1 of 2): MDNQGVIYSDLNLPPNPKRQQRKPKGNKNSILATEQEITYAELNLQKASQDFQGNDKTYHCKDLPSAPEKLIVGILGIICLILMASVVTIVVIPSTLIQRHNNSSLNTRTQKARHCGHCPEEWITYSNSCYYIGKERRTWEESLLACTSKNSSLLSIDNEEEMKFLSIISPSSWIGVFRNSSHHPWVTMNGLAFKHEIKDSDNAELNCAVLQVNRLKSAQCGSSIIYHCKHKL
T6 sequence (Q13241 whole entry, chain 2 of 2): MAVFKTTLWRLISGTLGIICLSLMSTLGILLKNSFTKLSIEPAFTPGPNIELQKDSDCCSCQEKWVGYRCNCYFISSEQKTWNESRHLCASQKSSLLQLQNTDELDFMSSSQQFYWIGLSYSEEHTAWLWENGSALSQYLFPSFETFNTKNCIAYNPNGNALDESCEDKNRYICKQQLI
Procedure: (§3) Then wash the cells 3 times with 170 µL FACS buffer. Re-suspend the cells at 100 µL/well with secondary antibody (goat anti-human Ig Fab-FITC, Cat # 2085-02, Southern biotech) with 1:400 dilution and incubate the plate for 30 min at 4° C. in dark. Centrifuge the plate at 2000 rpm, 4° C. for 5 min and discard supernatant. Then wash the cells 3 times with FACS buffer and analyze the sample with FACS verse. The fluorescence intensity of the staining was measured using flow cytometer (BD, FACSVerse). The geometric mean fluorescence intensity (GMFI; median fluorescence intensity (MFI)) of set antibodies staining was calculated (BD FACSuite software). Dose-response curves were generated and EC50s for thetrispecific variants binding were calculated using GraphPad Prism software.
(§4) Results: The expressed trispecific constructs were analyzed for their binding to cells expressing endogenous CD3ε, 5T4 and NKG2A/NKG2D. […] (FIG. 45F).

[6] = target: T7, 5T4 on cells (NCI-H226 endogenous; CHO over-expressing 5T4) (UniProt Q13641 32-420, limits assumed); experiment: FACS on CHO cells over-expressing ectopic 5T4 (FIG. 45D)
T7 construct: whole, on cells
T7 sequence (looked up): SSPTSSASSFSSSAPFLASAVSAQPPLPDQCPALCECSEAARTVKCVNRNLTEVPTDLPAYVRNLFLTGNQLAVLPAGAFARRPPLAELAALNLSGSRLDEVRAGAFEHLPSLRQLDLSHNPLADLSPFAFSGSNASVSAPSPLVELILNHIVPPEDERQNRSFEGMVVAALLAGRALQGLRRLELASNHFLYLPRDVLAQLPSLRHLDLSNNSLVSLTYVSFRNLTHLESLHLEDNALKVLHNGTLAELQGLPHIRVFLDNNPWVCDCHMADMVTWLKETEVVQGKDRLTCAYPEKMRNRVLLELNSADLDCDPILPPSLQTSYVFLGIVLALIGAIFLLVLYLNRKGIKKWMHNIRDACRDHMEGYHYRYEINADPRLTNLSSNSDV
Procedure: as §3, §4

T1 sequence (P26715 whole entry): as the sequence (P26715 whole entry, chain 1 of 2) above

B1: IM-1093 Tribody, NKG2A mutant variant (other)
heavy: GGSGGSEVQLVESGGGLVQPGGSLRLSCAASGFTFNTYAMNWVRQAPGKGLEWVARIRSKYNNYATYYADSVKDRFTISRDDSKNTLYLQMNSLRAEDTAVYYCVRHGNFGNSYVSWFAYWGQGTMVTVSSASTKGPSVFPLAPSSKSTSGGTAALGCLVKDYFPEPVTVSWNSGALTSGVHTFPAVLQSSGLYSLSSVVTVPSSSLGTQTYICNVNHKPSNTKVDKRVEPKSCPPCGGGGSDIQMTQSPSSLSASVGDRVTITCRASENIYSALAWYQQKPGKAPKLLIYNAKTLAEGVPSRFSGSGSGTDFTLTISSLQPEDFATYYCQHHAGTPRTFGGGTKVEIKGGGGSGGGGSGGGGSGGGGSQVQLVQSGAEVKKPGASVKVSCKASGYTFTSYWMNWVRQAPGQGLEWMGRIDPYDSETHYAQKLQGRVTMTTDTSTSTAYMELRSLRSDDTAVYYCARGGYDFDVDTLYWFFDVWGQGTTVTVSS
light: GGSGGSQAVVTQEPSLTVSPGGTVTLTCRSSTGAVTTSNYANWVQQKPGQAPRGLIGGTNKRAPGTPARFSGSLLGGKAALTLSGVQPEDEAEYYCALWYSNLWVFGGGTKLTVLGQPKAAPSVTLFPPSSEELQANKATLVCLISDFYPGAVTVAWKADSSPVKAGVETTTPSKQSNNKYAASSYLSLTPEQWKSHRSYSCQVTHEGSTVEKTVAPTECPPCSGGGSDIQMTQSPSSLSASVGDRVTITCRASQGISNYLAWFQQKPGKAPKSLIYRANRLQSGVPSRFSGSGSGTDFTLTISSLQPEDVATYYCLQYDDFPWTFGQGTKLEIKGGGGSGGGGSGGGGSGGGGSQVQLVQSGAEVKKPGASVKVSCKASGYTFTSFWMHWVRQAPGQGLEWMGRIDPNRGGTEYNEKAKSRVTMTADKSTSTAYMELSSLRSEDTAVYYCAGGNPYYPMDYWGQGTTVTVSS
notes: also called NKG2A mutated Tribody
[1]
  binding result: no binding (tested: dilution series from 400 nM)
[2]
  EC50: 12 nM
[3]
  EC50: 1.84 nM
NKG2A-CD94-ECD-hFc
  binding result: no binding (tested: dilution series from 400 nM)
[4]
  EC50: 1.3 nM
[5]
  binding result: no binding (tested: dilution series from 400 nM)
[6]
  EC50: 1.3 nM
